Consider two molecules from patent US20200407442A1 (WUXI BIOLOGICS IRELAND, published 2020).

Assay [1] deals with T1, full-length human LAG-3 on cells (human, UniProt P18627 23-525).
T1 construct: Expressed on Flp-In-293, CHO or 293F transfectants; also called hPro1.FL; cell surface human LAG-3
T1 sequence: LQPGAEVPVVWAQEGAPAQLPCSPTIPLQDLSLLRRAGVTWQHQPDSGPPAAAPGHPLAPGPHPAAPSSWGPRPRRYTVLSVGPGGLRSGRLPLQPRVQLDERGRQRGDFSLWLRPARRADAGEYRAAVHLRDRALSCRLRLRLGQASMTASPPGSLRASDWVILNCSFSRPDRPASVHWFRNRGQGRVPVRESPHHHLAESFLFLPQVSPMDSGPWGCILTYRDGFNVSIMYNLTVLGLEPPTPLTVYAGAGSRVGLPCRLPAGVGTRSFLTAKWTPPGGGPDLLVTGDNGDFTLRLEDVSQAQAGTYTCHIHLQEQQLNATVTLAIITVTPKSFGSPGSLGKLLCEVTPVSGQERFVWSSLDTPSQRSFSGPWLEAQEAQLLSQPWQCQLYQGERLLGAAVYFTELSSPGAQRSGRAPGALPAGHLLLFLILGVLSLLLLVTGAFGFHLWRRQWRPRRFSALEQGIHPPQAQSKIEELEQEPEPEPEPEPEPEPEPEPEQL
The experiment in a line: FACS affinity on Flp-In-293 cells expressing human LAG-3. The protocol:
Antibody binding affinity to cell surface LAG-3 was measured by FACS analysis. Flp-In-293 cells expressing human LAG-3 were transferred in to 96-well U-bottom plates at a density of 5×10⁵ cells/mL. Tested antibodies were serially diluted in wash buffer (1×PBS/1%BSA) and incubated with cells at 4° C. for 1 h. The secondary antibody goat anti-human IgG Fc FITC (3.5 moles FITC per mole IgG) was added and incubated at 4° C. in the dark for 0.5 h. The cells were then washed once and resuspended in 1×PBS/1%BSA, and analyzed by flow cytometry. Fluorescence intensity will be converted to bound molecules/cell based on the quantitative beads (QuantumTM MESF Kits, Bangs Laboratories, Inc.). Affinity was calculated using Graphpad Prism 5.

Assay [2] addresses T2, human LAG-3-ECD.D12.mFc mutant A59G (human, UniProt P18627 37-252).
T2 construct: construct limits as for m26
T2 chain: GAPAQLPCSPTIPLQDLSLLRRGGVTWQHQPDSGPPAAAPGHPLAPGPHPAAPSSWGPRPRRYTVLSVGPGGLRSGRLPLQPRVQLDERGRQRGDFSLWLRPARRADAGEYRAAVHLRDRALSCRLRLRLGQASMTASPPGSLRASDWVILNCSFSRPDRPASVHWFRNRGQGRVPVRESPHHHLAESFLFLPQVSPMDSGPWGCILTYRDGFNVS
The experiment in a line: ELISA, antibody coated, LAG-3 D12.mFc mutant in supernatant, normalised to control mutants. The protocol:
For ELISA binding assay, the antibody 1.53.3-uAb-IgG4k or 3.40.19-uAb-hIgG4L (2 μg/mL) was coated in plates. After interacting with the supernatant that contains quantified LAG-3 mutants or human LAG-3-ECD.D12.mFc protein, HRP conjugated anti-mFc antibody (1:5000; Bethyl, USA) was added as a detection antibody. Absorbance was normalized according to the average absorbance of control mutants. After setting an additional cutoff to the binding fold change (<0.75), the final determined epitope residues were identified.
(In general: In an ELISA, binding on a coated surface is turned into a signal by an enzyme label.)

For assay [3], the target named is T1, full-length human LAG-3 on cells. As to the kind of experiment: cell-based or functional assay.
Assay [4] has as its target T3, human LAG-3 protein (SPR analyte) (human, UniProt P18627 30-450).
T3 sequence: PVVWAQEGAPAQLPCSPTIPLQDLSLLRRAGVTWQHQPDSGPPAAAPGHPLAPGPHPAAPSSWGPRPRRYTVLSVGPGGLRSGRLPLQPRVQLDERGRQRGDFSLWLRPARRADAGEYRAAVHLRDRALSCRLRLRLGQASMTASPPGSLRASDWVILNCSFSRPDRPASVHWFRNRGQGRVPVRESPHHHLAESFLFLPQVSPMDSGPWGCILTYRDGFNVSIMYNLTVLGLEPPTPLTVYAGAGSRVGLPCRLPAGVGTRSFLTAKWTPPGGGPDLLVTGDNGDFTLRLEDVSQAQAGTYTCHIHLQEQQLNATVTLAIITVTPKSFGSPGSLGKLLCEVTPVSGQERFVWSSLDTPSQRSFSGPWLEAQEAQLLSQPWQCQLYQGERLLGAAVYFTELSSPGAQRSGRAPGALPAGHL
As to the kind of experiment: SPR Biacore 8K, antibody captured by anti-human Fc, LAG-3 as analyte. On the procedure: Antibodies were characterized for affinity and binding kinetics to human LAG-3 by SPR assay using Biacore 8K. Goat anti-human Fc was pre-immobilized to a sensor chip (CMS), and anti-LAG-3 antibodies were captured when injected to the chip. Various concentrations of human LAG-3 protein and running buffer were flowed through the sensor chip at a flow rate of 30 μL/min for an association phase of 300 s, followed by 3600 s dissociation. The association and dissociation curve was fit by 1:1 Langmuir binding model using Biacore 8K Evaluation Software.

B1: 1.53.3-uAb-IgG4k (antibody, V domains shown)
VH: QVQLQQWGAGLLKPSETLSLTCGVYGGSFSGYYWSWIRQPPGMGLEWIGEINHRGNTNYNPSLKSRVTISEDTSKNQFSLRLSSVTAADTAVYFCTRGEDYSDYDYYGDFWGQGTLVTVSS
VL: EIVLTQSPATLSLSQGERATLSCRASQSISSYLAWYQQKPGQAPRLLIYAASNRATGIPARFSGSGSGTDFTLTISSLEPEDFAIYYCQQRSNWPLTFGGGTKVEIK
notes: Fully human antibody from OMT rats; IgG4 kappa by its name
For orientation: Kd means the concentration at which binding is half-saturated. A low value points to tighter binding. By koff is commonly meant the rate constant with which the complex falls apart. A lower koff goes with slow dissociation. A word on the kon: it is a measure of how fast the partners come together. Low readings indicate slow association, high ones fast association. In assay [1], B1 yielded a Kd of 0.16 nM. In addition, the “Fold Change” value in assay [2] was 0.718. In addition, in assay [3], the “EC50, IL-2 luciferase reporter gene assay (Jurkat cells expressing human LAG-3 with Raji cells and SEE)” value worked out at 1.07 nM. For the same molecule, in assay [4], the Kd worked out at 0.0505 nM, the koff worked out at 3.33e-05 s⁻¹ and the kon came to 660000 M⁻¹ s⁻¹.

B2: 3.40.19-uAb-IgG4L (antibody, V domains shown)
VH: QLQLQESGPGLVKPSETLSLTCTVSGDSISSTSYYWGWIRQPPGKGLEWIGSFYYSGSTYYNPSLKSRVTISVDTSKNQFSLKLNSVTAADTAVYYCARMQLWSYDVDVWGQGTTVTVSS
VL: QSALTQPASVSGSPGQSITISCTGTSSDVGGYDYVAWYQQHPGKVPKLMIYDVSERPSGVSNRFSGSKSGNTASLTISGLQAEDEADYYCSSYTSTTTLVVFGGGTKLSVL
notes: Fully human antibody from OMT rats; IgG4 lambda by its name; also called 3.40.19-uAb-hIgG4L
In assay [1], B2 returned a Kd of 0.053 nM. Moreover, the “Fold Change” value in assay [2] stood at 0.542. The “EC50, IL-2 luciferase reporter gene assay (Jurkat cells expressing human LAG-3 with Raji cells and SEE)” value in assay [3] turned out to be 0.21 nM. In assay [4], binding was characterised by a dissociation constant (Kd) of 0.0106 nM, the koff is 1.11e-05 s⁻¹ and the kon was 1.05e+06 M⁻¹ s⁻¹.
